Laboratory results from US20170275357A1 (Bristol-Myers Squibb, published 2017).
Read-outs that look alike come from different tables or passages of the source.

B3: wild-type IL-23 (His-tagged p19 / non-tagged p40) (ligand, human)
chain 1: RAVPGGSSPAWTQCQQLSQKLCTLAWSAHPLVGHMDLREEGDEETTNDVPHIQCGDGCDPQGLRDNSQFCLQRIHQGLIFYEKLLGSDIFTGEPSLLPDSPVGQLHASLLGLSQLLQPEGHHWETQQIPSLSPSQPWQRLLLRFKILRSLQAFVAVAARVFAHGAATLSP
chain 2: IWELKKDVYVVELDWYPDAPGEMVVLTCDTPEEDGITWTLDQSSEVLGSGKTLTIQVKEFGDAGQYTCHKGGEVLSHSLLLLHKKEDGIWSTDILKDQKEPKNKTFLRCEAKNYSGRFTCWWLTTISTDLTFSVKSSRGSSDPQGVTCGAATLSAERVRGDNKEYEYSVECQEDSACPAAEESLPIEVMVDAVHKLKYENYTSSFFIRDIIKPDPPKNLQLKPLKNSRQVEVSWEYPDTWSTPHSYFSLTFCVQVQGKSKREKKDRVFTDKTSATVICRKNASISVRAQDRYYSSSWSEWASVPCS

Columns and labels:
human IL-17A homodimer [1] = molecular target: T1, human IL-17A homodimer (human, UniProt Q16552 24-155); assay: cell-based or functional assay
[2] = molecular target: T2, human IL-17A/F heterodimer (human, UniProt Q16552 24-155; Q96PD4 31-163); assay: cell-based or functional assay
human IL-17F homodimer [3] = molecular target: T3, human IL-17F homodimer (human, UniProt Q96PD4 31-163); assay: cell-based or functional assay
T3 sequence: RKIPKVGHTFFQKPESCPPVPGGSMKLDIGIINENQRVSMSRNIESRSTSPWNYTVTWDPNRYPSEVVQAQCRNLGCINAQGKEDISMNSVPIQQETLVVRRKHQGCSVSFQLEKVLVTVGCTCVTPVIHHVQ

human IL-17A homodimer [4] = molecular target: T1, human IL-17A homodimer; assay: cell-based or functional assay; remark: listed apart in the source
[5] = molecular target: T2, human IL-17A/F heterodimer; assay: cell-based or functional assay; remark: listed apart in the source
human IL-17F homodimer [6] = molecular target: T3, human IL-17F homodimer; assay: cell-based or functional assay; remark: listed apart in the source
human IL-17A homodimer [7] = molecular target: T1, human IL-17A homodimer; assay: cell-based or functional assay; remark: listed apart in the source
[8] = molecular target: T2, human IL-17A/F heterodimer; assay: cell-based or functional assay; remark: listed apart in the source
human IL-17F homodimer [9] = molecular target: T3, human IL-17F homodimer; assay: cell-based or functional assay; remark: listed apart in the source
human IL-17A homodimer [10] = molecular target: T1, human IL-17A homodimer; assay: cell-based or functional assay; remark: listed apart in the source
[11] = molecular target: T2, human IL-17A/F heterodimer; assay: cell-based or functional assay; remark: listed apart in the source
human IL-17F homodimer [12] = molecular target: T3, human IL-17F homodimer; assay: cell-based or functional assay; remark: listed apart in the source
human IL-17A homodimer [13] = molecular target: T1, human IL-17A homodimer; assay: cell-based or functional assay; remark: listed apart in the source
[14] = molecular target: T2, human IL-17A/F heterodimer; assay: cell-based or functional assay; remark: listed apart in the source
human IL-17F homodimer [15] = molecular target: T3, human IL-17F homodimer; assay: cell-based or functional assay; remark: listed apart in the source
human IL-17A homodimer [16] = molecular target: T1, human IL-17A homodimer; assay: cell-based or functional assay; remark: listed apart in the source
[17] = molecular target: T2, human IL-17A/F heterodimer; assay: cell-based or functional assay; remark: listed apart in the source
human IL-17F homodimer [18] = molecular target: T3, human IL-17F homodimer; assay: cell-based or functional assay; remark: listed apart in the source
human IL-17A homodimer [19] = molecular target: T1, human IL-17A homodimer; assay: SPR Biacore T100, captured antibody, bivalent analyte model
[20] = molecular target: T2, human IL-17A/F heterodimer; assay: as above
human IL-17F homodimer [21] = molecular target: T3, human IL-17F homodimer; assay: as above
human IL-17A homodimer [22] = molecular target: T1, human IL-17A homodimer; assay: as above; remark: listed apart in the source
[23] = molecular target: T2, human IL-17A/F heterodimer; assay: as above; remark: listed apart in the source
human IL-17F homodimer [24] = molecular target: T3, human IL-17F homodimer; assay: as above; remark: listed apart in the source
human IL-17F homodimer [25] = molecular target: T3, human IL-17F homodimer; assay: X-ray co-crystal structure
[26] = molecular target: human IL-23Rα/human IL-12Rβ1 on BaF3 transfectants (human, UniProt Q5VWK5 24-629; P42701 24-662); assay: cell-based or functional assay
[27] = molecular target: B3; assay: SPR (Biacore T100): hIL-23R-Fc captured on protein A, IL-23 (purified wild-type, and wild-type expression supernatant diluted 1:5) injected 3 min; response 10 s before the end of the injection, reference subtracted

B1: humanized anti-human IL-17A/F antibody 339-134 mAb IgG1.1 (antibody, V domains shown)
VH: QVQLVQSGAEVKKPGASVKVSCKASGYTFNEYTMHWVKQAPGQRLEWMGGINPNSGGVSYNQNFKGKATLTVDTSASTAYMELSSLRSEDTAVYYCARGGDGYYTNYFDIDYWGQGTTVTVSS
VL: DIQMTQSPSSLSASVGDRVTITCSASSSVNYMHWYQQKPGKVPKLLIYDTSKLASGVPSRFSGSGSGTDFTLTISSLQPEDVATYYCQQWNSHPLTFGQGTKLEIKR
notes: IgG1.1/kappa; also called MVC978/MVC717; humanized parent
Human IL-17A homodimer [1]
  IC50, NIH/3T3/KZ170 NF-kB luciferase reporter: 1.4 nM
[2]
  IC50, NIH/3T3/KZ170 NF-kB luciferase reporter: 0.26 nM
Human IL-17F homodimer [3]
  IC50, NIH/3T3/KZ170 NF-kB luciferase reporter: 0.24 nM
Human IL-17A homodimer [4]
  IC50, NIH/3T3/KZ170 NF-kB luciferase reporter: 1.3 nM
[5]
  IC50, NIH/3T3/KZ170 NF-kB luciferase reporter: 0.27 nM
Human IL-17F homodimer [6]
  IC50, NIH/3T3/KZ170 NF-kB luciferase reporter: 0.24 nM
Human IL-17A homodimer [7]
  IC50, G-CSF induction in primary human SAEC: 0.5 nM
  IC50, IL-6 induction in primary human fibroblasts (HFFF): 0.9 nM
[8]
  IC50, G-CSF induction in primary human SAEC: 1.3 nM
  IC50, IL-6 induction in primary human fibroblasts (HFFF): 13 nM
Human IL-17F homodimer [9]
  IC50, G-CSF induction in primary human SAEC: 1.1 nM
  IC50, IL-6 induction in primary human fibroblasts (HFFF): 15 nM
Human IL-17A homodimer [10]
  IC50, NIH/3T3/KZ170 NF-kB luciferase reporter: 3 nM
[11]
  IC50, NIH/3T3/KZ170 NF-kB luciferase reporter: 0.9 nM
Human IL-17F homodimer [12]
  IC50, NIH/3T3/KZ170 NF-kB luciferase reporter: 0.4 nM
Human IL-17A homodimer [13]
  IC50, NIH/3T3/KZ170 NF-kB luciferase reporter: 1.2 nM
[14]
  IC50, NIH/3T3/KZ170 NF-kB luciferase reporter: 0.23 nM
Human IL-17F homodimer [15]
  IC50, NIH/3T3/KZ170 NF-kB luciferase reporter: 0.28 nM
Human IL-17A homodimer [16]
  IC50, IL-6 induction in primary human fibroblasts (HFFF): 2 nM
[17]
  IC50, IL-6 induction in primary human fibroblasts (HFFF): 22 nM
Human IL-17F homodimer [18]
  IC50, IL-6 induction in primary human fibroblasts (HFFF): 23 nM
Human IL-17A homodimer [19]
  Kd: 1 nM
  koff: 0.003 s⁻¹
  kon: 2e+06 M⁻¹ s⁻¹
[20]
  Kd: 0.2 nM
  koff: 0.0005 s⁻¹
  kon: 2e+06 M⁻¹ s⁻¹
Human IL-17F homodimer [21]
  Kd: 0.1 nM
  koff: 0.0002 s⁻¹
  kon: 2e+06 M⁻¹ s⁻¹
Human IL-17A homodimer [22]
  Kd: 1 nM
  koff: 0.003 s⁻¹
  kon: 2e+06 M⁻¹ s⁻¹
[23]
  Kd: 0.2 nM
  koff: 0.0005 s⁻¹
  kon: 2e+06 M⁻¹ s⁻¹
Human IL-17F homodimer [24]
  Kd: 0.1 nM
  koff: 0.0002 s⁻¹
  kon: 2e+06 M⁻¹ s⁻¹

B2: Fab derived from the IL-17 arms of biAb3 (Lead Fab A3185F) (Fab, V domains shown)
VH: QVQLVQSGAEVKKPGASVKVSCKASGYTFNEYTMHWVKQAPGQRLEWMGGINPNSGGVSYNQNFKGKATLTVDTSASTAYMELSSLRSEDTAVYYCARGGDGYYTNYFDIDYWGQGTTVTVSS
VL: not shown
notes: Expressed periplasmically in E. coli, purified by IMAC (tag not described); also called humanized lead Fab; biAb Fab
Human IL-17F homodimer [25]
  binding result: binds

## B3
[26]
  EC50, pSTAT3 in BaF3/huIL-23Ra/huIL-12Rb1 transfectants: 21 pM

B4: hIL-23R-Fc (Fc fusion, human, UniProt Q5VWK5 24-353, looked up)
chain: GITNINCSGHIWVEPATIFKMGMNISIYCQAAIKNCQPRKLHFYKNGIKERFQITRINKTTARLWYKNFLEPHASMYCTAECPKHFQETLICGKDISSGYPPDIPDEVTCVIYEYSGNMTCTWNAGKLTYIDTKYVVHVKSLETEEEQQYLTSSYINISTDSLQGGKKYLVWVQAANALGMEESKQLQIHLDDIVIPSAAVISRAETINATVPKTIIYWDSQTTIEKVSCEMRYKATTNQTWNVKEFDTNFTYVQQSEFYLEPNIKYVFQVRCQETGKRYWQPWSSLFFHKTPETVPQVTSKAFQHDTWNSGLTVASISTGHLTSDNRGD
notes: Bought from R&D Systems; also called human IL-23 receptor; p19 specific IL-23 receptor; not shown: Fc part of the commercial fusion (R&D Systems) not described
[27]
  binding result: binds
